# Laboratory results reported in publication PMC5762634, “Domain swapping and SMYD1 interactions with the PWWP domain of human hepatoma-derived growth factor” (Scientific Reports, 2018).
# B1: human HDGF PWWP domain (residues 1-100) (domain or fragment)
# chain: not shown
# notes: human hepatoma-derived growth factor (HDGF), N-terminal PWWP domain, the first 100 amino acids; Subcloned into the NdeI and EcoRI sites of pET28a; also called apo PWWP domain; HDGF PWWP_(1-100) domain; source: E. coli BL21-Codon Plus-RIL, purified (Ni2+-NTA, Hitrap Q, Superdex-200)
# Target: the molecule itself
# Assay: SEC; Superdex-200; apo PWWP domain at higher initial concentration (proportion of dimer rises with concentration); 20 mM Tris-HCl, 5 mM EDTA, 5 mM beta-ME, pH 7.5
protein,measurement,value
B1,stoichiometry N,2
